This note sets out measurements from article PMC5769602, “Functional assays for the assessment of the pathogenicity of variants of GOSR2, an ER-to-Golgi SNARE involved in progressive myoclonus epilepsies” (Disease Models & Mechanisms, 2017).

Data set [1] deals with the molecule itself. Briefly: SEC; individual purified SNARE domains of the Bos1 variants (oligomeric state of single proteins); Superdex 75, PBS with 200 mM NaCl.
The target in data set [2] is T1, Sed5 211-320 (SNARE domain) (yeast, UniProt Q01590 211-320).
T1 construct: Sed5, yeast ER-to-Golgi Qa-SNARE, SNARE domain, residues 211-320; also called Qa-SNARE; source: E. coli BL21 (DE3), purified (Ni2+-NTA, ion exchange)
T1 sequence (looked up): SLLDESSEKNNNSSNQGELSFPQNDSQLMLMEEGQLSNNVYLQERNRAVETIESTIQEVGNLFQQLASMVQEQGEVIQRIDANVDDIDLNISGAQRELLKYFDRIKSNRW
Briefly: SEC; quaternary SNARE complexes assembled from equal amounts of purified Sed5 (211-320), Bet1 (1-118), Sec22 (126-186) and one Bos1 (151-221) variant, incubated overnight; Superdex 75, PBS with 200 mM NaCl. The following applies: both partners purified. (In general: In gel filtration, larger molecules generally elute earlier.)

Data set [3] addresses T2, Bet1 1-118 (yeast, UniProt P22804 1-118).
T2 construct: Bet1, yeast ER-to-Golgi Qc-SNARE, residues 1-118 (not only the SNARE domain); also called Qc-SNARE; source: E. coli BL21 (DE3), purified (Ni2+-NTA, ion exchange)
T2 sequence (looked up): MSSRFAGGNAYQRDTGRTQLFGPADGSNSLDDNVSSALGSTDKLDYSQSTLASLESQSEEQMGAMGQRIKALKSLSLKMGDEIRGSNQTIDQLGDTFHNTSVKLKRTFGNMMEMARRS
The data set is described as above. Conditions: both partners purified.

For data set [4], the target named is T2, Bet1 1-118. Description: fluorescence polarisation; fluorescence anisotropy over time; 500 nM OG-labelled Sec22 126-186 C131OG mixed with 2.7 uM Sed5 211-320, Bet1 1-118 and Bos1 151-221 or its mutants; PBS, 25°C. Conditions: both partners purified. On the technique in general: Fluorescence polarisation rises when a labelled molecule tumbles more slowly, as on binding a larger partner.

In data set [5] the target is T1, Sed5 211-320 (SNARE domain). The description is as above. The following applies: both partners purified.

B1: Bos1 151-221 p.Arg196del (domain or fragment, Saccharomyces cerevisiae, UniProt P25385 151-221, looked up)
chain: LYQGLQKEQSVFERGNAQLDYILEMGQQSFENIVEQNKILSKVQDMSNGLRTLGVSEQTITSINKRVFKD
notes: Bos1, Saccharomyces cerevisiae, SNARE domain, residues 151-221, with arginine 196 deleted (orthologous to GOSR2 p.Lys164del); also called Bos1 p.Arg196del; source: E. coli BL21 (DE3), purified (Ni2+-NTA, ion exchange)
As to B1, the binding result (in data set [1]; in data set [2]; in the data set with Bet1 1-118 [3]) was “binds” each time.

B2: Bos1 151-221 wild type (SNARE domain) (domain or fragment, Saccharomyces cerevisiae, UniProt P25385 151-221, looked up)
chain: LYQGLQKEQSVFERGNAQLDYILEMGQQSFENIVEQNKILSKVQDRMSNGLRTLGVSEQTITSINKRVFKD
notes: Bos1, Saccharomyces cerevisiae, SNARE domain, residues 151-221; Forms homo-oligomers of unstated size as the isolated SNARE domain; also called Bos1 wt; wild-type Bos1; source: E. coli BL21 (DE3), purified (Ni2+-NTA, ion exchange)
Regarding B2, the binding result (in data set [1]; in data set [2]; with Bet1 1-118 [4]) was “binds” throughout.

B3: Bos1 151-221 p.Gly176Trp (domain or fragment, Saccharomyces cerevisiae, UniProt P25385 151-221, looked up)
chain: LYQGLQKEQSVFERGNAQLDYILEMWQQSFENIVEQNKILSKVQDRMSNGLRTLGVSEQTITSINKRVFKD
notes: Bos1, Saccharomyces cerevisiae, SNARE domain, residues 151-221, with Gly176Trp (orthologous to GOSR2 p.Gly144Trp); also called Bos1 p.Gly176Trp; source: E. coli BL21 (DE3), purified (Ni2+-NTA, ion exchange)
Turning to B3, the binding result (in data set [5]; with Bet1 1-118 [4]) was “binds” throughout.

B4: Bos1 151-221 p.Gly176Asp (domain or fragment, Saccharomyces cerevisiae, UniProt P25385 151-221, looked up)
chain: LYQGLQKEQSVFERGNAQLDYILEMDQQSFENIVEQNKILSKVQDRMSNGLRTLGVSEQTITSINKRVFKD
notes: Bos1, Saccharomyces cerevisiae, SNARE domain, residues 151-221, with the designed Gly176Asp mutation; also called Bos1 p.Gly176Asp; source: E. coli BL21 (DE3), purified (Ni2+-NTA, ion exchange)
In the case of B4, the binding result (in data set [1]; in data set [2]; in the data set with Bet1 1-118 [3]) was “binds” each time.
